In patent US9803013B2, “Biological materials and uses thereof” (BioInvent International AB, priority 2005, dated 2017):

B1: B11: fully human IgG1 antibody specific for ICAM-1; VH and VL sequences of FIG. 10 (SEQ ID NOs. 6 and 8) (antibody, listed as Homo sapiens, V domains shown)
VH: EVQLLESGGGLVQPGGSLRLSCAASGFTFSNAWMSWVRQAPGKGLEWVAFIWYDGSNKYYADSVKGRFTISRDNSKNTLYLQMNSLRAEDTAVYYCARYSGWYFDYWGQGTLVTVSS
VL: QSVLTQPPSASGTPGQRVTISCTGSSSNIGAGYDVHWYQQLPGTAPKLLIYDNNNRPSGVPDRFSGSKSGTSASLAISGLRSEDEADYYCQSYDSSLSAWLFGGGTKLTVLG
B2: C11: fully human IgG1 antibody specific for surface IgM; VH and VL sequences of FIG. 11 (SEQ ID NOs. 10 and 12) (antibody, listed as Homo sapiens, V domains shown)
VH: EVQLLESGGGLVQPGGSLRLSCAASGFTFGSYEMNWVRQAPGKGLEWVSVIYSGGSTYYADSVEGRFTISRDNSKNTLYLQMNSLRAEDTAVYYCARDTNPYYYYGMDVWGQGTLVTVSS
VL: QSVLTQPPSASGTPGQRVTISCSGSSSNIGNNAVNWYQQLPGTAPKLLIYRNNQRPSGVPDRFSGSKSGTSASLAISGLRSEDEADYYCQSYDSSLNGQVFGGGTKLTVLG

Legend:
SP-53 [1] = assay: Apoptosis induction by cross-linked IgG (Annexin V/PI); format: cell-based, human; settings: viable cells after 6 hour incubation, crosslinked, compared to control FITC-8 IgG1
Experimental: (§1) 2×10^5 B lymphoma cells (Raji or Ramos) or Jurkat T cells were incubated with serially diluted and detoxified scFv's in culture medium for 1 h on ice.
(§2) When whole IgGs were used for apoptosis induction, cross-linking reagent was replaced by goat Fab′2 anti-human Fc γ antibody (Jackson ImmunoResearch) with minimal cross-reactivity with non-IgG antibody isotypes (to avoid unspecific cross-linking of endogenous B lymphoma associated surface immunoglobulins) and incubated, as described above, for 6 h.
(§3) Apoptotic cells were, unless otherwise stated, detected by combined staining with Annexin V Alexa Fluor 488 (AV) and Propidium Iodide (PI) (both from Molecular Probes, Invitrogen) and subsequent flow-cytometric analysis, Cells were defined as viable (AV−/PI−), early apoptotic (AV+/PI−) or late apoptotic/necrotic (AV+/PI+). AV and PI signals were recorded in the FL1 and FL2 or FL3 channels (as indicated in the text), respectively, using a FACSCalibur instrument (BD Biosciences).
(§4) • ^aApoptosis Induction; determined by percentage of viable cells after 6 hour incubation with any of the human antibodies, crosslinked with Goat anti-Human (gamma) Fc specific antibody; −, viability not affected; +, 95-80%; ++, 79-60%; +++, 59-40% viable cells compared to control (human FITC-8 IgG1). […] The cell line dependent MFI value of control human FITC-8 IgG antibody was subtracted from the MFI of each human antibody.

BJAB [2] = assay: as above; format: cell-based, human; settings: viable cells after 6 hour incubation, crosslinked, compared to control FITC-8 IgG1
Experimental: as §1, §2, §3, §4

JVM-2 = assay: as above; format: cell-based, human; settings: viable cells after 6 hour incubation, crosslinked, compared to control FITC-8 IgG1
Experimental: as §1, §2, §3, §4

Reh/KM-3 [3] = assay: as above; format: cell-based, human; settings: viable cells after 6 hour incubation, crosslinked, compared to control FITC-8 IgG1
Experimental: as §1, §2, §3, §4

NCEB-1 [4] = assay: as above; format: cell-based, human; settings: viable cells after 6 hour incubation, crosslinked, compared to control FITC-8 IgG1
Experimental: as §1, §2, §3, §4

SC-1 = assay: as above; format: cell-based, human; settings: viable cells after 6 hour incubation, crosslinked, compared to control FITC-8 IgG1
Experimental: as §1, §2, §3, §4

Jeko-1 [5] = assay: as above; format: cell-based, human; settings: viable cells after 6 hour incubation, crosslinked, compared to control FITC-8 IgG1
Experimental: as §1, §2, §3, §4

DOHH-2 [6] = assay: as above; format: cell-based, human; settings: viable cells after 6 hour incubation, crosslinked, compared to control FITC-8 IgG1
Experimental: as §1, §2, §3, §4

WSU-NHL [7] = assay: as above; format: cell-based, human; settings: viable cells after 6 hour incubation, crosslinked, compared to control FITC-8 IgG1
Experimental: as §1, §2, §3, §4

Granta 519 = assay: as above; format: cell-based, human; settings: viable cells after 6 hour incubation, crosslinked, compared to control FITC-8 IgG1
Experimental: as §1, §2, §3, §4

RL [8] = assay: as above; format: cell-based, human; settings: viable cells after 6 hour incubation, crosslinked, compared to control FITC-8 IgG1
Experimental: as §1, §2, §3, §4

Rec-1 [9] = assay: as above; format: cell-based, human; settings: viable cells after 6 hour incubation, crosslinked, compared to control FITC-8 IgG1
Experimental: as §1, §2, §3, §4

CL-01 = assay: as above; format: cell-based, human; settings: viable cells after 6 hour incubation, crosslinked, compared to control FITC-8 IgG1
Experimental: as §1, §2, §3, §4

MC/CAR = assay: as above; format: cell-based, human; settings: viable cells after 6 hour incubation, crosslinked, compared to control FITC-8 IgG1
Experimental: as §1, §2, §3, §4

Daudi [10] = assay: as above; format: cell-based, human; settings: for Apoptosis Induction: Daudi, viable cells after 6 hour incubation, crosslinked, compared to control FITC-8 IgG1
Experimental: as §1, §2, §3, §4
(§5) BI-505 receptor occupancy was studied following FACS analyses of tumor cells incubated with increasing concentrations of BI-505 in vitro. Briefly, following pre-blocking of tumor cell FcγR with 1 mg/ml human IgG on ice for 15 min, tumor cells were incubated with 10-fold serially diluted (10 μg/ml to 0.00001 μg/ml) AF647-BI505 and surface bound BI-505 was recorded as the mean fluorescence intensities (MFI) picked up in the FL4 channel of a FACSCalibur instrument. The experiment was repeated three times and mean MFI values were calculated and plotted as a function of antibody concentration. A binding saturation curve was generated by plotting mean MFI values as a function of BI-505 concentration. The curve was fitted using a five-parameter log-log curve and XLfit software. BI-505 concentration dependent PCD was calculated by plotting the percentage of maximal tumor PCD in vitro as a function of BI-505 concentration in a manner analogous to that described for BI-505 receptor occupancy. Briefly, tumor cells were cultured with increasing concentrations of BI-505 in the presence of hyper-cross-linking antibody reagent for 24 hr, and PCD was monitored after combined staining with Annexin V/AF488 and propidium iodide using flow cytometry. Cells received treatment in triplicate and the experiment was repeated three to five times. Mean percentage of maximal PCD was then plotted as a function of BI-505 concentration and was fitted using a five parameter log-log curve and XLfit software. In vitro PCD and in vivo anti-tumor activity were plotted as a function of receptor occupancy using curve fitting equations and data generated and described above.

Ramos = assay: as above; format: cell-based, human; settings: for Apoptosis Induction: Ramos, viable cells after 6 hour incubation, crosslinked, compared to control FITC-8 IgG1
Experimental: as §1, §2, §3, §4, §5

Raji [11] = assay: as above; format: cell-based, human; settings: for Apoptosis Induction: Raji, viable cells after 6 hour incubation, crosslinked, compared to control FITC-8 IgG1
Experimental: as §1, §2, §3, §4, §5

SP-53 [12] = assay: IgG binding to B lymphoma cell line, flow cytometry MFI; set-up: species or system human; settings: SP-53, Mantle cell Lymphoma; control FITC-8 IgG MFI subtracted
Experimental: as §4

Daudi [13] = assay: as above; set-up: species or system human; settings: Burkitt's Lymphoma, control FITC-8 IgG MFI subtracted
Experimental: as §4

BJAB [14] = assay: as above; set-up: species or system human; settings: Burkitt's Lymphoma, control FITC-8 IgG MFI subtracted
Experimental: as §4

NCEB-1 [15] = assay: as above; set-up: species or system human; settings: NCEB-1, Mantle cell Lymphoma; control FITC-8 IgG MFI subtracted
Experimental: as §4

Jeko-1 [16] = assay: as above; set-up: species or system human; settings: Jeko-1, Mantle cell Lymphoma; control FITC-8 IgG MFI subtracted
Experimental: as §4

DOHH-2 [17] = assay: as above; set-up: species or system human; settings: DOHH-2, Follicular Lymphoma; control FITC-8 IgG MFI subtracted
Experimental: as §4

WSU-NHL [18] = assay: as above; set-up: species or system human; settings: Follicular Lymphoma, control FITC-8 IgG MFI subtracted
Experimental: as §4

RL [19] = assay: as above; set-up: species or system human; settings: Follicular Lymphoma, control FITC-8 IgG MFI subtracted
Experimental: as §4

Rec-1 [20] = assay: as above; set-up: species or system human; settings: Rec-1, Mantle cell Lymphoma; control FITC-8 IgG MFI subtracted
Experimental: as §4

Raji [21] = assay: as above; set-up: species or system human; settings: Burkitt's Lymphoma, control FITC-8 IgG MFI subtracted
Experimental: as §4

Reh/KM-3 [22] = assay: IgG binding to pre B cell leukaemia cell line, flow cytometry MFI; set-up: species or system human; settings: Reh/KM-3, pre B cell Leukaemia; control FITC-8 IgG MFI subtracted
Experimental: as §4

Molecule	Apoptosis Induction (SP-53 [1])	Apoptosis Induction (BJAB [2])	Apoptosis Induction (JVM-2)	Apoptosis Induction (Reh/KM-3 [3])	Apoptosis Induction (NCEB-1 [4])	Apoptosis Induction (SC-1)	Apoptosis Induction (Jeko-1 [5])	Apoptosis Induction (DOHH-2 [6])	Apoptosis Induction (WSU-NHL [7])	Apoptosis Induction (Granta 519)	Apoptosis Induction (RL [8])	Apoptosis Induction (Rec-1 [9])	Apoptosis Induction (CL-01)	Apoptosis Induction (MC/CAR)	Apoptosis Induction (Daudi [10])	Apoptosis Induction (Ramos)	Apoptosis Induction (Raji [11])	MFI (SP-53 [12])	MFI (Daudi [13])	MFI (BJAB [14])	also measured
B1	−	+ (95-80%)	−	−	+ (95-80%)	−	+ (95-80%)	−	−	+ (95-80%)	−	−	++ (79-60%)	+ (95-80%)	+ (95-80%)	++ (79-60%)	+ (95-80%)	90	150	310	PCD induction (Daudi [10]; ICAM-1-expressing Daudi lymphoma cells): dose-dependently induced PCD; PCD induction (Ramos; ICAM-1-expressing Ramos lymphoma cells): dose-dependently induced PCD; PCD induction (Raji [11]; ICAM-1-expressing Raji lymphoma cells): dose-dependently induced PCD; MFI (NCEB-1 [15]): 340; MFI (Jeko-1 [16]): 30; MFI (DOHH-2 [17]): 100; MFI (WSU-NHL [18]): 0; MFI (RL [19]): 100; MFI (Rec-1 [20]): 380; MFI (Raji [21]): 420; MFI (Reh/KM-3 [22]): 20
B2	−	+ (95-80%)	−	−	−	−	++ (79-60%)	−	−	+ (95-80%)	−	−	+ (95-80%)	−	+ (95-80%)	+++ (59-40% viable cells compared to control (human FITC-8 IgG1))	+ (95-80%)	360	450	510	MFI (NCEB-1 [15]): 10; MFI (Jeko-1 [16]): 1040; MFI (DOHH-2 [17]): 90; MFI (WSU-NHL [18]): 60; MFI (RL [19]): 210; MFI (Rec-1 [20]): 900; MFI (Raji [21]): 20; MFI (Reh/KM-3 [22]): 0
